Experimental data as given in US20050130151, “Method and identification of downstream mrna ligands to fmrp and their role in fragile x syndrome and associated disorders” (Emory University, published 2005).

How the values were obtained:
[1] = biological target: T1, FMRP C-terminus (distal to KH domains, contains RGG box) (Homo sapiens, UniProt Q06787-9 Q06787-9:402-605); test: filter; K+; abrogated in Li+; settings: tags: N-terminal T7, C-terminal His (pET21b); label: 32P-UTP; G4
Procedure: To assess whether the RNAs listed in Table 1 bound FMRP in a G-quartet dependent manner, binding in the presence of Li⁺ versus K⁺ was assessed, and mutants in which the Hoogsteen paired Gs were changed to Cs were generated.

[2] = biological target: T2, FMRP (full length, iso7) (Homo sapiens, UniProt Q06787-9 Q06787-9:3-605); test: filter; 5-6 nt stem sufficient for high affinity; boundaries mapped by alkaline hydrolysis/filter capture
[3] = biological target: T2, FMRP (full length, iso7); test: EMSA; 100 nM FMRP; supershifted by anti-FMRP mAb
[4] = biological target: FMRP N-terminus (Homo sapiens, UniProt Q06787-9 Q06787-9:3-218); test: filter; all sc1 binding activity in C-terminal domain; settings: tags: N-terminal T7, C-terminal His (pET21b); label: 32P-UTP; stem-loop with intramolecular G4
[5] = biological target: T1, FMRP C-terminus (distal to KH domains, …); test: as above; settings: tags: N-terminal T7, C-terminal His (pET21b); label: 32P-UTP; stem-loop with intramolecular G4
[6] = biological target: FMRP I304N (KH2 mutant, full length) (Homo sapiens, UniProt Q06787-9 Q06787-9:3-605, I304N); test: filter; nearly as well as wild-type FMRP
[7] = biological target: T2, FMRP (full length, iso7); test: filter; minimal effect
[8] = biological target: T2, FMRP (full length, iso7); test: filter; no effect versus sc1
[9] = biological target: T2, FMRP (full length, iso7); test: filter; severe decrease, undetectable
[10] = biological target: T2, FMRP (full length, iso7); test: filter; no binding detected
[11] = biological target: T2, FMRP (full length, iso7); test: filter; antisense control in K+

GGGGAGGCAGGAGGAGGCCGAGG (ssRNA) [Guanine nucleotide exchange factor (KIAA0763) 3'UTR site]
binding result [1]: binds

GCUGCGGUGUGGAAGGAGUGGCUGGGUUGCGCACC (ssRNA) [sc1 truncated with 5-6 nt stem (boundaries nt 23-57)]
binding result [2]: binds

GAGCGGCUGCGGUGUGGAAGGAGUGGCUGGGUUGCGCACCUUGGCUUC (ssRNA) [sc1]
binding result [3]: binds
binding result [4]: no binding
binding result [5]: binds
binding result [6]: binds

GAGCGGCUGCGGUGUGGAAGAAGUGGCUGGGUUGCGCACCUUGGCUUC (ssRNA, [none]) [sc1 G38A]
binding signal [7]: < 20 fold decrease

GAGCGGCUGCGGUGUGGAAGGAGUGGCUGGGAAGCGCACCUUGGCUUC (ssRNA, [none]) [sc1 U49U50 to AA]
binding signal [7]: < 20 fold decrease

GAGCGGCUGCGGUGUGGAAGGAGUGGGUGGGUUGCGCACCUUGGCUUC (ssRNA, [none]) [sc1 C44G]
binding result [8]: binds

GAGCGGCUGCGGUGUGGCCGGAGUGGCUGGGUUGCGCACCUUGGCUUC (ssRNA, [none]) [sc1 A35A36 to CC]
binding result [9]: no binding

GUGGAAGGAGUGGCUGGG (ssRNA) [sc1 conserved element only]
binding result [10]: no binding

CCUCGGCCUCCUCCUGCCUCCCC (ssRNA) [Sec7-related GEF antisense transcript]
binding result [11]: no binding
